Experimental data published in PMC4570213.

Molecular target: SP1 (endogenous, PIG1 nuclear extract) (UniProt P08047)
Assay: EMSA, supershift
Settings: 10 ug PIG1 nuclear extract, 300 fmol biotin probe, 1.5 ug poly(dI-dC), kit binding buffer (LightShift; composition, salt and pH not given), 15 ul, 20 min room …

Chain of SP1 (endogenous, PIG1 nuclear extract) (P08047 whole entry): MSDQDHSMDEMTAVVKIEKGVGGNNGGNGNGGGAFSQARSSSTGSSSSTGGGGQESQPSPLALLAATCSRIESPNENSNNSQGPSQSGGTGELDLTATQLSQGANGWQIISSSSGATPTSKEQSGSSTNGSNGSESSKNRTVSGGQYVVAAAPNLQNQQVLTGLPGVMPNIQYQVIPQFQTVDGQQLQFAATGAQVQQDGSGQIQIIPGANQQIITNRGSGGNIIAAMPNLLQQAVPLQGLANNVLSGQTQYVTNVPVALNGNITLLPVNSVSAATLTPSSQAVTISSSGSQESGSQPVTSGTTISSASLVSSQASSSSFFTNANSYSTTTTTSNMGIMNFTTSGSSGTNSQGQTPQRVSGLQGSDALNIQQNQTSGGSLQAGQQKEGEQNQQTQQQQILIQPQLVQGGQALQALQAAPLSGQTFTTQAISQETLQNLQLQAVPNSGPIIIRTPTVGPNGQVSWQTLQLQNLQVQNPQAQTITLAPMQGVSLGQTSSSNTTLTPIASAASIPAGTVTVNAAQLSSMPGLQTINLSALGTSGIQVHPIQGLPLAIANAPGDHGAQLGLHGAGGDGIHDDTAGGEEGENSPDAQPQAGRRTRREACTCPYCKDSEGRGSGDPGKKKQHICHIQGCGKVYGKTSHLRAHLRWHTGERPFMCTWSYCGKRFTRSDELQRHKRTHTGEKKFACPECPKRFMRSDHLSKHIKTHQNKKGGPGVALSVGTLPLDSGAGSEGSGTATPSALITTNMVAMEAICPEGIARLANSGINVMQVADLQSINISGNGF

| Sequence | binding signal (% of -129C band) |
| --- | --- |
| AAGATGGAATGGAATCCAGATGGGCGGGGG (double strand) [AHR promoter -129T probe] | > 100 |
| AAGACGGAATGGAATCCAGATGGGCGGGGG (double strand) [AHR promoter -129C probe] | 100 |
